Measurements from the supplement of paper PMC9170038.

System: MS2 coat protein
Assay: apparent KD of MS2 coat protein; designed switch direction (-1 OFF switch, 1 ON switch): -1; higher = weaker reporter binding
How it was run: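 The buffer was Tris-HCl pH 7.5 with KCl, MgCl2, BSA, DTT, tRNA and Tween-20. In it, SNAP-549-labelled MS2 coat protein was titrated in doubling steps from 0.7 or 1.5 nM to 3 µM over chip-bound RNA switches transcribed by stalled E. coli RNA polymerase on Illumina chips. Apparent KD is the per-design median over clusters of curve fits to normalised fluorescence.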

[1] = Eterna round: R95, input ligand: FMN 200 uM
[2] = Eterna round: R95, input ligand: microRNA oligo, concentration not stated
[3] = Eterna round: R95, input ligand: none
[4] = input ligand: microRNA oligo, concentration not stated

| Sequence | apparent KD of MS2 coat protein [1] | apparent KD of MS2 coat protein [2] | apparent KD of MS2 coat protein [3] | apparent KD of MS2 coat protein (input ligand: FMN 200 uM) | apparent KD of MS2 coat protein (input ligand: none) | apparent KD of MS2 coat protein [4] |
| --- | --- | --- | --- | --- | --- | --- |
| GGAGUACAUGAGGAUCACCCAUGUGAGGAUAUGUAAGGAUAGUAGGUAAGGAAAGAGGACAGAAGGCACGGGAA [JR_Exclu1_Sub070] (puzzle: Exclusion 1) | 46 nM | 41.4 nM | 67.2 nM |  |  |  |
| GGGCUCGGAGGAUAUACAAUGGGCUCGGGAAAUCGGGCUCUACAUGAGGAUCACCCAUGUAGAAGGUCGGGCUC [-38.9, -35.6 kcal A 24%, 4,4] (Eterna round: R97, puzzle: Exclusion 2) |  |  |  | 16.4 nM | 14.1 nM |  |
| UCACGGGACUGAGGAUAUACAUCAACAAUGGUUGUAGAAGGCAGAAGGUUGAAUCAUAUACAAAACAUGAGGAUCACCCAUGUA [JR_ExcNG1_Sub032] (Eterna round: R96, puzzle: Exclusion NG 1) |  |  |  | 23 nM | 26.2 nM | 23.8 nM |
| UCCAGGCGAGGAUAUACAAAGAUUUUUUCGUUUUGUCUCGAACAUGAGGAUCACCCAUGUAGAAGGUGCUUCUG [JR_Ex2_Sub012] (Eterna round: R97, puzzle: Exclusion 2) |  |  |  | 149 nM | 115 nM |  |
| ACUUAUUGAGGAUAUACAUUAAAUUACAUGAGGAUCACCCAUGUUCUUCAAUGUAUAUAUGCAGAAGGCAGAAGAA [JL-ex5-4.28 Malcolm mod] (Eterna round: R97, puzzle: Exclusion 5) |  |  |  | 13.4 nM | 12.8 nM |  |
| AUUAAAUAAGGAUAUACAUGAGGAUCACCCAUGUGUAGCAAGGUGUUGCGAUCCGCAAGUAGAAGGUGUAUAAU [Eternabot (L2) Solution 2] (Eterna round: R97, puzzle: Exclusion 3) |  |  |  | 49.6 nM | 32 nM |  |
| AACAUGUAAGGAUAUAAAAGAAGGAGUACAAAGCCCUCCUAUUAGAAGGUACAUGAGGAUCACCCAUGUGGCGG [Eternabot (L2) Solution 96] (Eterna round: R97, puzzle: Exclusion 4) |  |  |  | 336 nM | 57.1 nM |  |
| UCGUGUCUUGAGGAUAUGUUUGAAAAGGCCCACGCAGAAGGCGAGACAUGAGGAUCACCCAUGUCACAGCUCCG [EX6 C.16] (Eterna round: R97, puzzle: Exclusion 6) |  |  |  | 56.4 nM | 18.6 nM |  |
| AGCAGACGAGGAUAUAAAUGAUAUAACAUGAGGAUCACCCAUGUACGAUCGAAUGAUCGUUUAGAAGGCGUCUGCU [E5/11-A1] (Eterna round: R97, puzzle: Exclusion 5) |  |  |  | 16.5 nM | 16.3 nM |  |
| UUUUAGAGAGGAUAUAUAUUUUAAAACAUGAGGAUCACCCAUGUAAUUUUAUGGGAGUAAAUAGAAGGCUCAUUUA [JMFs Solution 3] (puzzle: Exclusion 5) | 48.7 nM | 51 nM | 56.3 nM |  |  |  |
| CUAGGGCACAAUUAAGCGCCCUAACAUGAGGAUCACCCAUGUCAGGAUAUGUAGGCAAAGACCCUACAGAAGGGACAUGUCCUA [Artileza] (Eterna round: R96, puzzle: Exclusion NG 3) |  |  |  | 393 nM | 69.2 nM | 46.3 nM |
| UCAUACGUUGAGGAUAUGUCAGUUAGUAUAUUUACAGAAGGCGAUACAUGAGGAUCACCCAUGUUUAUGGGCAU [Ex-6 Malc#4] (puzzle: Exclusion 6) |  | 225 nM |  |  |  |  |
| UGGUAACAUGAGGAUCACCCAUGUCAGGAUAUCAGUAAGAAUAGAUUAGAUUAGAAGAUGAGAAGGGACUAUAU [Excluse me! 5 - Jieux - Exclusion 1] (puzzle: Exclusion 1) | 27.6 nM | 32 nM | 36.7 nM |  |  |  |
| GCCAGAUCAGGAUAUCUAAUAUAUCACAUGAGGAUCACCCAUGUCCAGCGAAAGCUGGAGGGAGAAGGGAUCUGGC [Mat - Exclusion 5 - Eli mod - D102] (puzzle: Exclusion 5) | 39.8 nM | 79.8 nM | 48.2 nM |  |  |  |
| ACCUCACAUGAGGAUCACCCAUGUUAGGAUAUCUCGACACUCCGCGGGCGGUAGCGUCAGAGAAGGAACGUGCU [Iszaxeza] (puzzle: Exclusion 1) |  | 23.1 nM |  |  |  |  |
| GAAAAGGUAGGAUAUACGAAAACAAAGGGUAGAAACAAAACACAUGAGGAUCACCCAUGUAGAAGGACCAAAAG [salish99_ex2_r3_097] (puzzle: Exclusion 2) | 164 nM | 25.6 nM | 25.4 nM |  |  |  |
| AGGUAACAUGAGGAUCACCCAUGUCAGGAUAUCAGUAAGAUGAGAAUAGAGUAGAGUAUGAGAAGGGACUAUAU [Excluse me! 21 - Jieux - Exclusion 1] (puzzle: Exclusion 1) |  | 37.4 nM |  |  |  |  |
| CGAGCUUUUUGCUCGUCUUACAUGAGGAUCACCCAUGUCAAACAAACAAACAAACGAAAGUUUGUUUGUUUGUUUGA [Mod of sellena 2] (Eterna round: R97, puzzle: Sensor, turn-off variant 1) |  |  |  | 29.4 nM | 30 nM |  |
| CCUGUGUGAGGAUAUGGUGUUGGCCAAAAGGAAUAGCUCCUCCAGAAGGCACAUGAGGAUCACCCAUGUCGUGG [Jolly's Folly 23 - Jieux - Exclusion 4] (Eterna round: R96, puzzle: Exclusion 4) |  |  |  | 138 nM | 60.2 nM | 50.3 nM |
| AAAGACAUGAGGAUCACCCAUGUACUGGUGGAGCUCGUGAGGCAGGAUAUCGCGUGCGAAGCUCGCGAGAAGGGCCAGGAAUUU [Cexela] (Eterna round: R96, puzzle: Exclusion NG 3) |  |  |  | 416 nM | 109 nM | 98.2 nM |
| AUUUUAAUAUAGGAUAUCGAUUUUAUUAUUUAACGAGAAGGAUAAACAUGAGGAUCACCCAUGUGGUAUCAUGG [JMFs Solution 3] (puzzle: Exclusion 6) |  | 123 nM |  |  |  |  |
| UUUAAUUUUUUUUUUUUACAAGCUUUUUGCUCGUCUUAUACAUGAGGAUCACCCAUGUAAGUGGGAAGUAAAUUAUC [JMF 54] (puzzle: Sensor v3, turn-off variant 2) | 48.3 nM | 184 nM | 83.8 nM |  |  |  |
| CAAUAGGGAGGAUAUCCAAUAUAUGACAUGAGGAUCACCCAUGUUUCCACUCGUACCUCCGGAGAAGGCCCAUAAC [Ex5 #7] (Eterna round: R97, puzzle: Exclusion 5) |  |  |  | 21.1 nM | 21.7 nM |  |
| AAAUUGGUAGAGGAUAUCGCACAGGAAACACUGCGAGAAGGCUGCACAUGAGGAUCACCCAUGUUUAGUUGCGA [EX6 #37] (Eterna round: R97, puzzle: Exclusion 6) |  |  |  | 22.5 nM | 16.6 nM |  |
| GCGGGUUUUUUGUUCGUUUACAUGAGGAUCACCCAUGUGUCUUCGCGUUCGGGUUCGGGCGGGCUUGGGCUUGGGCG [-26.2, -50.6, A 8%] (Eterna round: R97, puzzle: Sensor, turn-off variant 1) |  |  |  | 47.4 nM | 47.8 nM |  |
| GGUCUACAUGAGGAUCACCCAUGUAAGGAUAUCGUCACUGGAGCUUCGGCUCCAGUGACGAGAAGGUGCAUAAU [E1/11-A1] (Eterna round: R97, puzzle: Exclusion 1) |  |  |  | 35.4 nM | 27.2 nM |  |
